This is an account of results in patent publication US11161912B2, “Heparanase-neutralizing monoclonal antibodies” (Technion Research & Development Foundation Limited, priority 2015, dated 2021).

Assay [1] deals with T1, heparanase (latent 65 kDa or GS3 constitutively active) (Homo sapiens, UniProt Q9Y251).
T1 construct: host or cells: added exogenously to HEK 293 cells
T1 sequence (Q9Y251 36-543): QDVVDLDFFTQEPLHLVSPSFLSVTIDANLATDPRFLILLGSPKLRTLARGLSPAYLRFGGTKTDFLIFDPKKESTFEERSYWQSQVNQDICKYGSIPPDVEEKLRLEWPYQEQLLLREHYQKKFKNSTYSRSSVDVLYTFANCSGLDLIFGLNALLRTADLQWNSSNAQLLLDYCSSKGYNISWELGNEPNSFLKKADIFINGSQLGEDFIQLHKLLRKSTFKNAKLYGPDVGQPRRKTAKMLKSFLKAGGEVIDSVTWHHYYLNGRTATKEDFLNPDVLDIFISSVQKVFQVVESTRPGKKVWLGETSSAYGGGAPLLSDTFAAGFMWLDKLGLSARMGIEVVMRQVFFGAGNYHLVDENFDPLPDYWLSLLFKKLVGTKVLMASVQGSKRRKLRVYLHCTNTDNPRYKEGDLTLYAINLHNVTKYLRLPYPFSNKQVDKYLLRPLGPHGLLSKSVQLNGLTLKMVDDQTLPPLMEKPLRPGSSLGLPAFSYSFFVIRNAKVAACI
In words: Cellular uptake and processing of heparanase in HEK 293 cells (immunoblot). The format is cell-based. The settings on record: mAb 10 μg/ml. An excerpt:
(§1) Development of heparanase-neutralizing monoclonal antibodies: In order to target heparanase activity even more specifically, a panel of monoclonal antibodies (mAb) directed against the KKDC peptide (Lys158-Asn171) which comprises the substrate (HS)-binding domain of heparanase (Levy-Adam F, et al. 2005, J Biol Chem 280(21):20457-20466) were developed. In order to validate that the resulting antibodies target the heparin/HS binding domain, cellular uptake of latent 65 kDa heparanase in the absence or presence of the various newly generated mAbs was tested. This system appeared most relevant because previous studies have shown that heparanase uptake is HS-dependent (Gingis-Velitski S, et al. 2004. J Biol Chem 279(42):44084-44092). […] Moreover, liver metastasis of ESb cells was inhibited 4-5 fold by mAb 9E8 (FIG. 3C). The availability of highly specific heparanase-neutralizing mAbs led to the conclusion that heparanase enzymatic activity is required for cell invasion and tumor metastasis.
(§2) FIG. 3A. HEK 293 cells were incubated with latent 65 kDa (upper panel) or GS3 constitutively active heparanase (1 μg/ml; third panel) and the indicated mAbs (10 μg/ml). […] The mixture was then applied onto ^35S-labeled ECM-coated dishes and heparanase activity was determined as described above (lower panel). […] Quantification of the extent of CD45 staining is shown graphically in the lower panel. […]
(In general: In western blotting, separated proteins are transferred to a membrane and probed.)

Assay [2] has as its system heparanase (latent 65 kDa or GS3 constitutively active). The description is as above. Type of assay: cell-based. The settings on record: GS3 1 μg/ml, mAb 10 μg/ml.
Excerpt: as §1, §2

The test system of assay [3] is Cal-27 tongue carcinoma. In words: Matrigel cell invasion, Cal-27 tongue carcinoma cells. The format is cell-based, human. The settings on record: Cal-27 cells, mAb 2 μg, 6 h. As to the method: Cell invasion. Matrigel invasion assay was performed using modified Boyden chambers with polycarbonate Nucleopore membrane (Corning, Corning, N.Y.), essentially as described (17). Briefly, filters (6.5 mm in diameter, 8 μm pore-size) were coated with Matrigel (30 μl); Cells (2×10^5) in 100 μl of serum-free medium were seeded in triplicate on the upper part of each chamber, and the lower compartment was filled with 600 μl medium supplemented with 10% FCS. After incubation for 5 h at 37° C. in a 5% CO2 incubator, non-invading cells on the upper surface of the filter were wiped with a cotton swab, and migrated cells on the lower surface of the filter were fixed, stained with 0.5% crystal violet (Sigma) and counted by examination of at least seven microscopic fields.
FIG. 5A. Cell invasion. Cal-27 tongue carcinoma (left panels) and U87 glioma cells (right panels) (2×10^5) were plated onto Matrigel-coated filters in the presence of mouse IgM/IgG (upper panels), mAb 9E8 (2 μg; second left and middle panels). Invading cells adhering to the lower side of the membrane were visualized after 6 h. […] Lungs were harvested after 18 days, photographed (lower panel) and the number of metastatic lesions was counted (upper panel; p=0.001, 0.0006, 0.0001 for Con vs. Ab 1453, Con vs. mAb 9E8 and Con vs. SST0001, respectively). […]

Assay [4] deals with Mouse B16 melanoma cells. In words: B16 melanoma experimental lung metastasis. The settings on record: C57Bl/6 mice, given with the cells: Ab #1453 250 μg, mAb 9E8 500 μg, SST0001 400 μg; lungs after 18 days. The format is in vivo. On the procedure: Experimental metastasis. B16 BL6 mouse melanoma (2×10^5) or LM2-4 human breast cancer cells (2×10^6) were injected into the tail vein of C57/BL mice or SCID/Beige mice (respectively) together with the indicated compound, essentially as described (Hostettler N, et al. 2007, FASEB J 21(13):3562-3572). Lungs were harvested 18 days thereafter and metastases occurrence was determined following fixation by gross inspection and histology (Weissmann et al, 2016, Proc Natl Acad Sci USA 113:704-709).
FIG. 5A. Cell invasion. Cal-27 tongue carcinoma (left panels) and U87 glioma cells (right panels) (2×10^5) were plated onto Matrigel-coated filters in the presence of mouse IgM/IgG (upper panels), mAb 9E8 (2 μg; second left and middle panels). Invading cells adhering to the lower side of the membrane were visualized after 6 h. The number of invading cells per high power field is shown graphically at the lower panels. FIG. 5B, FIG. 5C. Tumor metastasis. FIG. 5B Mouse B16 melanoma cells (2×10^5) were inoculated into the tail vein of C57Bl/6 mice (n=7) together with rabbit IgG (300 μg; Con), Ab #1453 (250 μg), mAb 9E8 (500 μg) or SST0001 (400 μg). Lungs were harvested after 18 days, photographed (lower panel) and the number of metastatic lesions was counted (upper panel; p=0.001, 0.0006, 0.0001 for Con vs. Ab 1453, Con vs. mAb 9E8 and Con vs. SST0001, respectively). […]

“Also recorded” adds a separate entry of the source.

B1: mAb 9E8: monoclonal IgM raised against KKDC peptide (Lys158-Asn171) of heparanase; VH SEQ ID NO: 7, VL SEQ ID NO: 8 (antibody)
VH: EVKLLESGGGLVQPGGSLKLSCAASGFDFSRYWMSWVRQAPGKGLEWIGEINPDSSTINYTPSLKDKFIISRDNAKNTLYLQMSKVRSEDTALYYCARRGYEGNYAMDYWGQGTSVTVSSESQSFPNVFPLVSCESPLSDKNLVAMGCLAR
VL: DIVMTQAAPSVPVTPGESVSISCRSSKSLLHSNGNTYLYWFLQRPGQSPQLLIYRMSNLASGVPDRFSGSGSGTAFTLRISRVEAEDVGVYYCMQHLEYPFTFGSGTKLEIKRADAAPTVSIFPPSSEQLTSGGASVVCFL
modifications: IgM constant regions
B1: the “uptake and processing of latent 65 kDa heparanase” value in assay [1] is given as “markedly decreased; also recorded: almost complete inhibition”. In assay [2], the “uptake of constitutively active heparanase (GS3)” value is given as “inhibited profoundly”. In addition, the cell invasion entry in assay [3] was “inhibitory effect”. The “experimental lung metastasis (number of metastatic lesions)” value in assay [4] is reported as “inhibitory effect”.
